This is an account of results in PMC10958042.

Sequences and labels used below:
B1: ATGL (PNPLA2, patatin-like phospholipase domain-containing protein 2), human, full length / G0S2 (G0/G1 switch protein 2), human (parent)
chain 1: MFPREKTWNISFAGCGFLGVYYVGVASCLREHAPFLVANATHIYGASAGALTATALVTGVCLGEAGAKFIEVSKEARKRFLGPLHPSFNLVKIIRSFLLKVLPADSHEHASGRLGISLTRVSDGENVIISHFNSKDELIQANVCSGFIPVYCGLIPPSLQGVRYVDGGISDNLPLYELKNTITVSPFSGESDICPQDSSTNIHELRVTNTSIQFNLRNLYRLSKALFPPEPLVLREMCKQGYRDGLRFLQRNGLLNRPNPLLALPPARPHGPEDKDQAVESAQAEDYSQLPGEDHILEHLPARLNEALLEACVEPTDLLTTLSNMLPVRLATAMMVPYTLPLESALSFTIRLLEWLPDVPEDIRWMKEQTGSICQYLVMRAKRKLGRHLPSRLPEQVELRRVQSLPSVPLSCAAYREALPGWMRNNLSLGDALAKWEECQRQLLLGLFCTNVAFPPEALRMRAPADPAPAPADPASPQHQLAGPAPLLSTPAPEARPVIGALGL
chain 2: METVQELIPLAKEMMAQKRKGKMVKLYVLGSVLALFGVVLGLMETVCSPFTAARRLRDQEAAVAELQAALERQALQKQALQEKGKQQDTVLGGRALSNRQHAS
B2: ATGL (PNPLA2, patatin-like phospholipase domain-containing protein 2), human, full length / CGI-58 (ABHD5, 1-acylglycerol-3-phosphate O-acyltransferase ABHD5), human (parent)
chain 1: B1 chain 1
chain 2: MAAEEEEVDSADTGERSGWLTGWLPTWCPTSISHLKEAEEKMLKCVPCTYKKEPVRISNGNKIWTLKFSHNISNKTPLVLLHGFGGGLGLWALNFGDLCTNRPVYAFDLLGFGRSSRPRFDSDAEEVENQFVESIEEWRCALGLDKMILLGHNLGGFLAAAYSLKYPSRVNHLILVEPWGFPERPDLADQDRPIPVWIRALGAALTPFNPLAGLRIAGPFGLSLVQRLRPDFKRKYSSMFEDDTVTEYIYHCNVQTPSGETAFKNMTIPYGWAKRPMLQRIGKMHPDIPVSVIFGARSCIDGNSGTSIQSLRPHSYVKTIAILGAGHYVYADQPEEFNQKVKEICDTVD

In one assay the parent is B1. Kind of assay: LUMIER: Protein A-ATGL variant and firefly luciferase-partner co-expressed in HEK293T, lysates immunoprecipitated on IgG-coated plates, co-precipitated partner measured as luciferase luminescence. Conditions: with G0S2 (G0/G1 switch protein 2), transient co-transfection, IgG-coated LUMITRAC plates, 2 h at 4 °C, three PBS washes, Bright-Glo luciferase reagent, triplicates per assay, two …, parent: 0.26, not graded, scale: log2 fold change of co-immunoprecipitated luminescence relative to wild-type ATGL within each experiment.
On to chain 1 E314A, for which the screen value is 0.00238.
Same read-out and setting: to chain 1 G153K belongs -1.68; to chain 1 G153A, -1.31.
On the same count and under the same terms, to chain 1 F348E belongs -0.115; to chain 1 G189E, -2.28.
For the variant chain 1 A453E, the screen value is 0.72.
Same read-out and setting: with chain 1 E368A the figure was -0.233.
On the same count and under the same terms, with chain 1 I70A the figure was -1.03; with chain 1 I70K, -1.77; with chain 1 F35A, -0.163.
The same measure, in the same setting: to chain 1 F35E belongs -0.0735; to chain 1 G66L, -0.176.
chain 1 G66A: the screen value was determined as 0.751.
The same measure, in the same setting: to chain 1 E125L belongs -0.308; to chain 1 A434L, 0.461.
On the same count and under the same terms, to chain 1 H109E belongs 0.353; to chain 1 A104E, -0.113; to chain 1 G59L, -2.12.
Still for that read-out and setting: with chain 1 K92L the figure was 0.251; with chain 1 L62A, -1.67; with chain 1 L62K, -1.38.
As for chain 1 G16K, the screen value was -0.435.
On the same count and under the same terms, with chain 1 K275A the figure was -0.535.

Staying with this assay, now noted: with G0S2 (G0/G1 switch protein 2), transient co-transfection, IgG-coated LUMITRAC plates, 2 h at 4 °C, three PBS washes, Bright-Glo luciferase reagent, triplicates per assay, two …, parent: 0.56, not graded, scale: log2 fold change of co-immunoprecipitated luminescence relative to wild-type ATGL within each experiment.
Regarding chain 1 E314A, the screen value is -0.218.
On the same count and under the same terms, to chain 1 G153K belongs -2.61.
Still for that read-out and setting: with chain 1 G153A the figure was -1.25; with chain 1 F348E, -0.287.
The same measure, in the same setting: with chain 1 G189E the figure was -2.66.
In the case of chain 1 A453E, the screen value is -0.082.
On the same count and under the same terms, with chain 1 E368A the figure was -0.215; with chain 1 I70A, -1.14.
As for chain 1 I70K, the screen value was -2.22.
The same measure, in the same setting: to chain 1 F35A belongs -0.133; to chain 1 F35E, 0.169.
On the same count and under the same terms, with chain 1 G66L the figure was -0.16; with chain 1 G66A, 0.00762; with chain 1 E125L, -0.181.
The same measure, in the same setting: with chain 1 A434L the figure was -0.0543.
Regarding chain 1 H109E, the screen value came out at 0.0835.
Still for that read-out and setting: with chain 1 A104E the figure was 0.0584; with chain 1 G59L, -2.22.
Same read-out and setting: to chain 1 K92L belongs -0.642; to chain 1 L62A, -2.25.
The same measure, in the same setting: to chain 1 L62K belongs -1.99; to chain 1 G16K, -0.755.
In the case of chain 1 K275A, the screen value is -0.748.

The variants in the next assay derive from B2. The assay is described as above. Conditions: with CGI-58 (ABHD5, 1-acylglycerol-3-phosphate O-acyltransferase ABHD5), transient co-transfection, IgG-coated LUMITRAC plates, 2 h at 4 °C, three PBS washes, Bright-Glo luciferase reagent, triplicates per assay, two …, parent: 0.32, not graded, scale: log2 fold change of co-immunoprecipitated luminescence relative to wild-type ATGL within each experiment.
Consider chain 1 G16K, for which the screen value is -0.139.
Still for that read-out and setting: to chain 1 Y415A belongs 0.149; to chain 1 A453E, 0.381.
Still for that read-out and setting: with chain 1 P86K the figure was -0.174; with chain 1 L261E, -1.2; with chain 1 V127L, -0.449.
On to chain 1 N39E, for which the screen value is -0.3.
Same read-out and setting: with chain 1 R351L the figure was -0.948.
Turning to chain 1 E314A, the screen value was -0.218.
chain 1 R113L: the screen value is -0.625.
On the same count and under the same terms, to chain 1 R113K belongs 0.189; to chain 1 L62K, -0.614; to chain 1 L62A, -0.556.
In the case of chain 1 G189E, the screen value is -1.39.
In the case of chain 1 Q140K, the screen value was -0.444.
For the variant chain 1 Q140A, the screen value was 0.428.
Same read-out and setting: with chain 1 G66A the figure was -0.000473; with chain 1 G66L, 0.0179.
On the same count and under the same terms, with chain 1 L178A the figure was -0.598.
The same measure, in the same setting: with chain 1 S106K the figure was -0.182; with chain 1 P258L, -1.23.
On to chain 1 L102K, for which the screen value is -0.532.
Still for that read-out and setting: to chain 1 I70K belongs -0.355; to chain 1 I70A, -0.496.
In the case of chain 1 F35E, the screen value was found to be 0.146.
With chain 1 F35A, the screen value was -0.0512.
The same measure, in the same setting: to chain 1 E125L belongs -0.624; to chain 1 A434L, 0.0792; to chain 1 S158E, -0.0835.
The same measure, in the same setting: to chain 1 S158A belongs 0.402.
Same read-out and setting: to chain 1 E368A belongs -0.427; to chain 1 V328A, -0.513.
Turning to chain 1 G153A, the screen value was -0.595.
chain 1 G153K: the screen value is -0.536.

Staying with this assay, now noted: with CGI-58 (ABHD5, 1-acylglycerol-3-phosphate O-acyltransferase ABHD5), transient co-transfection, IgG-coated LUMITRAC plates, 2 h at 4 °C, three PBS washes, Bright-Glo luciferase reagent, triplicates per assay, two …, parent: 0.45, not graded, scale: log2 fold change of co-immunoprecipitated luminescence relative to wild-type ATGL within each experiment.
For chain 1 G16K, the screen value came to 0.515.
On the same count and under the same terms, with chain 1 Y415A the figure was -0.124.
Consider chain 1 A453E, for which the screen value turned out to be 0.474.
On to chain 1 P86K, for which the screen value is -0.669.
As to chain 1 L261E, the screen value was -0.989.
Regarding chain 1 V127L, the screen value is -0.203.
On the same count and under the same terms, to chain 1 N39E belongs -0.215; to chain 1 R351L, -1.04; to chain 1 E314A, -0.112.
chain 1 R113L: the screen value was -0.259.
Same read-out and setting: with chain 1 R113K the figure was 0.534; with chain 1 L62K, -0.447.
Still for that read-out and setting: with chain 1 L62A the figure was -0.528.
On the same count and under the same terms, to chain 1 G189E belongs -1.13; to chain 1 Q140K, 0.322.
As to chain 1 Q140A, the screen value worked out at 0.0685.
On to chain 1 G66A, for which the screen value was 0.0899.
For chain 1 G66L, the screen value is -0.54.
As for chain 1 L178A, the screen value is -0.392.
On the same count and under the same terms, with chain 1 S106K the figure was -0.557; with chain 1 P258L, -1.16.
The same measure, in the same setting: with chain 1 L102K the figure was -0.83; with chain 1 I70K, -0.676; with chain 1 I70A, -0.552.
On the same count and under the same terms, with chain 1 F35E the figure was 0.336; with chain 1 F35A, -0.207; with chain 1 E125L, -0.2.
As to chain 1 A434L, the screen value amounted to 0.226.
As for chain 1 S158E, the screen value was -0.000176.
As to chain 1 S158A, the screen value turned out to be 0.00753.
On the same count and under the same terms, to chain 1 E368A belongs -0.714; to chain 1 V328A, -0.464; to chain 1 G153A, -0.455.
The same measure, in the same setting: to chain 1 G153K belongs -0.602.
